# Assay results taken from paper PMC8575367.
# Like-named read-outs stand apart in the source and are kept apart here.
# Columns and labels:
# Test in all cases: fluorescence anisotropy
# [1] = target: T1, CPSF30-5F (five CCCH domains) (Bos taurus, UniProt O19137 33-170)
# [2] = target: T1, CPSF30-5F (five CCCH domains); remark: listed apart in the source
# [3] = target: T1, CPSF30-5F (five CCCH domains); remark: listed apart in the source
# [4] = target: T1, CPSF30-5F (five CCCH domains); remark: listed apart in the source
# [5] = target: T1, CPSF30-5F (five CCCH domains); remark: listed apart in the source
# [6] = target: T1, CPSF30-5F (five CCCH domains); remark: listed apart in the source
# [7] = target: CPSF30-FL (five CCCH + CCHC zinc knuckle) (Bos taurus, UniProt O19137 1-243)
# Sequence of CPSF30-FL (five CCCH + CCHC zinc knuckle) (O19137 whole entry, the tested form may be a part): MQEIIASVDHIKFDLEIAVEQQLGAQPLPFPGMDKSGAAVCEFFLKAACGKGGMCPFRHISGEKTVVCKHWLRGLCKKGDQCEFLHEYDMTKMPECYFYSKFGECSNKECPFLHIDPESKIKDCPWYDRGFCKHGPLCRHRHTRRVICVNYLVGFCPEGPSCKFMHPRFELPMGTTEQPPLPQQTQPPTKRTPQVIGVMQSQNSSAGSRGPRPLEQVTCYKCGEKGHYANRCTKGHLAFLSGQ
# [8] = target: T1, CPSF30-5F (five CCCH domains); remark: listed apart in the source
# [9] = target: T1, CPSF30-5F (five CCCH domains); remark: listed apart in the source
# [10] = target: T1, CPSF30-5F (five CCCH domains); remark: listed apart in the source
# [11] = target: T1, CPSF30-5F (five CCCH domains); remark: listed apart in the source
# T1 sequence (O19137 33-170): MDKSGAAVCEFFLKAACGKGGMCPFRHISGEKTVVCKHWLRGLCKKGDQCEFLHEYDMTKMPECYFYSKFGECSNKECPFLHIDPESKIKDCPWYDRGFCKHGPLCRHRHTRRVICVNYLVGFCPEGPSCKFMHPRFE
binder,measurement,setting,value
UCUCACUUUAAAAAUAAAAAACAUGCUUAU (ssRNA) [Most freq fl (AAA flanks)],apparent K (half saturation),[1],226 ± 1.6 nM
AUUUAUUUAUUAUUUAUUUAUUUA (ssRNA) [ARE-24],apparent K (half saturation),[2],265 ± 31 nM
AUUAUUUAUUUAUUUA (ssRNA) [ARE-16],apparent K (half saturation),[3],1000 ± 82 nM
UCUCACUUUUCGAAUAAAUCGCAUGCUUAU (ssRNA) [Least freq fl (UCG flanks)],apparent K (half saturation),[4],309 ± 25 nM
UCUCACUUUAAUAAUAAGAAUCAUGCUUAU (ssRNA) [ATHA (α-thalassemia)],apparent K (half saturation),[1],135 ± 6.3 nM
UCUCACUUUAAUAUUAAAAAUCAUGCUUAU (ssRNA) [P2AtoU],apparent K (half saturation),[5],207 ± 0.6 nM
UCUCACUUUAAUAAUCAAAAUCAUGCUUAU (ssRNA) [P4AtoC],apparent K (half saturation),[6],335 ± 38 nM
CACUUUAAUAAUAAAAAUCAUGCU (ssRNA) [α-syn24 (labeled)],binding result,[7],binds
UCUCACUUUAAUAAUGAAAAUCAUGCUUAU (ssRNA) [IPEX],binding result,[8],no binding
UCUCACUUUAAUAAUACAAAUCAUGCUUAU (ssRNA) [P5AtoC],apparent K (half saturation),[5],278 ± 29 nM
UCUCACUUUAAUAGUAAAAAUCAUGCUUAU (ssRNA) [P2AtoG],apparent K (half saturation),[6],376 ± 12 nM
UUUAUUAUUUAUUUAUUUAG (ssRNA) [ARE-20],apparent K (half saturation),[9],499 ± 37 nM
UCUCACUUUAAUAUUAAGAAUCAUGCUUAU (ssRNA) [FABRY],binding result,[8],no binding
UCUCACUUUAAUAAUAACAAUCAUGCUUAU (ssRNA) [P6AtoC],apparent K (half saturation),[6],309 ± 26 nM
UCUCACUUUAAUAAUAGAAAUCAUGCUUAU (ssRNA) [LUPUS],binding result,[8],no binding
GUGAUUAUUUAUUAUUUAUUUAUUAUUUAUUUAUUUAG (ssRNA) [ARE-38],apparent K (half saturation),[10],141 ± 5 nM
UUAUUAUUUAUUUAUUUA (ssRNA) [ARE-18],apparent K (half saturation),[9],671 ± 49 nM
UCUCACUUUAAUAACAAAAAUCAUGCUUAU (ssRNA) [BTHA (β-thalassemia)],apparent K (half saturation),[9],148 ± 9 nM
UUUAUUAUUUAUUUAUUAUUUAUUUAUUUA (ssRNA) [ARE-30],apparent K (half saturation),[11],163 ± 10 nM
